Experiment in all cases: FRET
Common to all, as to settings: chain shown with the change, n = 2, minimum of 20 cells analyzed in each n, read off a plot

For test [1], the target named is T1, NIS D237A, cerulean- or citrine-tagged, Q92911.
T1 chain: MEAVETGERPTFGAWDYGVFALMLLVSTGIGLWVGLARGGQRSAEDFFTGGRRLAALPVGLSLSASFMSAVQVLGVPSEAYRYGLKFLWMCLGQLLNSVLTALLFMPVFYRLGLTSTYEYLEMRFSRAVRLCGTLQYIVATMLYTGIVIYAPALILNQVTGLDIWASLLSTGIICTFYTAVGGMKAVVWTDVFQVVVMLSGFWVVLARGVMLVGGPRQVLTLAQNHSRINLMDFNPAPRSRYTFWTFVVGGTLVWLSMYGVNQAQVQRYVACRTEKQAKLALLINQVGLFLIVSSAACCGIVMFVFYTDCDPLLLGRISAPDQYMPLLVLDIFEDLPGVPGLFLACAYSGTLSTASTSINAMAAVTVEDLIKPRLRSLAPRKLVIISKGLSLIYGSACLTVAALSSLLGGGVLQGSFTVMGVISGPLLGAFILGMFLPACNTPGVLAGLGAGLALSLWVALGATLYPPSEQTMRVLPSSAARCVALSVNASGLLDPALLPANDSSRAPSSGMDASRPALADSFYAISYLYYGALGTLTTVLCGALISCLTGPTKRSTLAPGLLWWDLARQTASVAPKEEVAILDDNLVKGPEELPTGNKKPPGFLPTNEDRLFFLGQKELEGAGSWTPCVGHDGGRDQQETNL

The target in test [2] is T2, NIS Y242A, cerulean- or citrine-tagged, Q92911.
T2 chain: T1 chain with A237D, Y242A

The target in test [3] is T3, NIS T243A, cerulean- or citrine-tagged, Q92911.
T3 chain: T1 chain with A237D, T243A

Changes are numbered by the printed parent chain. In names and notes the source's numbering stands.

B1: sodium/iodide symporter (NIS), wild type, cerulean- or citrine-tagged, Q92911 Cer:A525F; Cit:D237A (protein)
chain: T1 chain with A237D, A525F
Take B1: the response in test [1] (HeLa cells, parent: est. 15) is 50; in test [1] (SW1736 cells, parent: est. -10), -180.

B2: sodium/iodide symporter (NIS), wild type, cerulean- or citrine-tagged, Q92911 Cer:A525F; Cit:Y242A (protein)
chain: T1 chain with A237D, A525F
Consider B2, for which the response in test [2] (HeLa cells, parent: est. 15) was 120; in test [2] (SW1736 cells, parent: est. -10), -50.

B3: sodium/iodide symporter (NIS), wild type, cerulean- or citrine-tagged, Q92911 Cer:Q471A; Cit:T243A (protein)
chain: T1 chain with A237D, Q471A
Take B3: the response in test [3] (HeLa cells, parent: est. 15) was -100; in test [3] (SW1736 cells, parent: est. -10), -330.

B4: sodium/iodide symporter (NIS), wild type, cerulean- or citrine-tagged, Q92911 Cer:Q471A; Cit:Y242A (protein)
chain: T1 chain with A237D, Q471A
With B4, the response in test [2] (HeLa cells, parent: est. 15) was -100; in test [2] (SW1736 cells, parent: est. -10), -220.
